{"source": "the nanobody polyreactivity screen of Harvey et al. (2022)"}
{"assay": "yeast display, Sf9 membrane polyspecificity reagent, FACS + sequencing; frameworks hold sequencing errors", "procedure,_shortened": "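Synthetic nanobody libraries on Saccharomyces cerevisiae BJ5465 were galactose-induced for 36–48 hours, stained 1 hour at 4 °C with 10% biotinylated, detergent-solubilized Sf9 membrane reagent and enriched on streptavidin microbeads. FACS then separated cells into low and high (top ~1%) gates by anti-HA (expression) and streptavidin (reagent binding) fluorescence. Genes were colony-PCR amplified, MiSeq 2 × 250 sequenced and CDR-length filtered. A clone's polyreactivity label is that of its gate of origin.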"}
{"sequence": "QVQIVESGGGLVQAGGSLRLSCAASGFILNYYGMGWYRQAPGKERELVATISRGASTNYADSVKGRFTISRDNAKNTVYLQMISLKPEETEVYSCAKDYGDWGQGTQVTVSS", "polyreactivity (PSR sort gate)": "low polyreactivity"}
{"sequence": "QVQIVESGGGLVQAGGSLRLSCAASGFTFALYAMGWYRQEPGKEREWVAANTRSGRTKYADSVKGRFTISRDNAKNTVYLQMNSLKPEDTAVYYCAADFRYYVTTRFNYWGQGTQVTVSS", "polyreactivity (PSR sort gate)": "high polyreactivity"}
{"sequence": "QVQIVESGGGLVQAGGSLRLSCAASGFTFVYYVMGWYRPAPGKERELVAAINSGGGSTYYADSVKGRFTISRDKAKNTVYLQMKSLKPEDTAVYYCNARVRVRLGRNWSSYYYWGQGTQVTVSS", "polyreactivity (PSR sort gate)": "high polyreactivity"}
{"sequence": "QVQIVESGGGLVQAGGSLRLSCAASGIIFGRNTMGWYRQAPGKERELVAGISSNGGSTYYADSVKGRFTISRDNAKNTVYLQMNSLKPEDTAVYYCAAYYNIPDRRRVGYDYWGQGTQVTVSS", "polyreactivity (PSR sort gate)": "high polyreactivity"}
{"sequence": "QVQIVESGGGLVQAGGSLRLSCAASGIIFYNYAMGWYREAPGKERELVAAITGTGSRTYYADSVKGRFTISRDNAKNTVYLQMNSLNPEDTAVYYCAVNTRRYWYGYWGQGTQVTVSS", "polyreactivity (PSR sort gate)": "high polyreactivity"}
{"sequence": "QVQIVESGGGLVQAGGSLRLSCAASGNTFNYYTMGWYIQAPGKERELVAAIRSGGRTYYADSVKGRFTISRDNANNSVSLQMNSLKPEDTAVYFCAALAVTYRYDYWGQGTQLTVSS", "polyreactivity (PSR sort gate)": "high polyreactivity"}
{"sequence": "QVQIVESGGGLVQAGGSLRLSCAASGRIFGPYAMVWYRQAPGKERELVAAIRASSSSTYYADSVKGRFTISRDNAKNTVYLQMNSLKPEDTAVYYCAADWYYGYAWKYGYWGQVTQVTVSS", "polyreactivity (PSR sort gate)": "low polyreactivity"}
{"sequence": "QVQIVESGGGLVQAGGSLRLSCAASGRIFNIYAMGWYRQAPGKERELVADIRWNGGSTYYADSVKGRFTISRDNAKNTVYLQMNSLKPEDTAVYYCAAARRRRFYDYYNAWYDVDYWGQGTQVTVSS", "polyreactivity (PSR sort gate)": "low polyreactivity"}
{"sequence": "QVQIVESGGGLVQAGGSLRLSCAASGRIFRNTMGWYIQAPGKERDLVAAITDTTDSTYYADSVKGRFTISRDNAKNTVYLQMNSLKPEDSAVYYCAARYGGYVNRPYYYWGHGTQVTVSS", "polyreactivity (PSR sort gate)": "low polyreactivity"}
{"sequence": "QVQIVESGGGLVQAGGSLRLSCAASGRIFSQNTMGWYRQAPGKERELVAVISWRGGRTSYADSVKGRFTISRDNAQNTVYLQMNSLKPEDTAVYYCNAKRYAGSNYDYWGQGTQVTVSS", "polyreactivity (PSR sort gate)": "high polyreactivity"}
{"sequence": "QVQIVESGGGLVQAGGSLRLSCAASGRISEANAMGRYRQATWKERELVAAIDFSDGSTYYADSVKGRFTISRDNAKNTVYLQMNSLKPEDTAVYYCAADDQYYPYDYWGLGTQVTVSS", "polyreactivity (PSR sort gate)": "low polyreactivity"}
{"sequence": "QVQIVESGGGLVQAGGSLRLSCAASGRTFNQYAMGWYRQAPVKERELVAAISASGGNTYYADSVKGRFTISRDNAKNNVYVQMNSLKQEDTEVYYCADKQSSSRYYGNDYWGQGTQVTVSS", "polyreactivity (PSR sort gate)": "high polyreactivity"}
{"sequence": "QVQIVESGGGLVQAGGSLRLSCAASGRTFRENAMGWYRQAPGKERELVAAAISSGDGTNYADSVKGRFTISRDYAKNTVYLQMNSLQPEDTAVYYCAADGPRDSYDYWGQGTQVTVSS", "polyreactivity (PSR sort gate)": "low polyreactivity"}
{"sequence": "QVQIVESGGGLVQAGGSLRLSCAASGRTFTAYAMGWYRQAPGKERELVAAITTSGGTTYYADSVKGRFTISRDNAKNTVYLQMKSLKPEDTAVYYCAADVVVSWWLIYDYWGQGTQVTVSS", "polyreactivity (PSR sort gate)": "low polyreactivity"}
{"sequence": "QVQIVESGGGLVQAGGSLRLSCAASGRTVGYNPMGWYRQAPGKETELVAVIRSGGSTYYADSVKGRFTISRDNAQYSVYLQLHSLIPEDSEVYYCAATGLYNVTSPYSYKYDYWGQCTQVTVSS", "polyreactivity (PSR sort gate)": "low polyreactivity"}
{"sequence": "QVQIVESGGGLVQAGGSLRLSCAASGSICTHNDMGWYRPSTWKERELVAAISTSGGRTYDADSVKGSFTISRDTAKNTVYLPMNSLKPEDTAVYYCNDRSVRSRYDYWGQGTQVTVSS", "polyreactivity (PSR sort gate)": "high polyreactivity"}
{"sequence": "QVQIVESGGGLVQAGGSLRLSCAASGSIFFYYSMGWYRQAPGKERELVAAISVGGSTYYADSVKGRFTISRDNAKNTVYLQMNSLKPEDTAVYSFNAVPAKGYVTVVRYYYWGQGTQVTVSS", "polyreactivity (PSR sort gate)": "low polyreactivity"}
{"sequence": "QVQIVESGGGLVQAGGSLRLSCAASGSIFGVNAMGWYRQAPGKERELVASITGGDSTNYADSVKGRFTISRDNAKNTVYLQMNSLKPEDTAVYYCAKDHYYRYEEGDYWGQGTQVTVSS", "polyreactivity (PSR sort gate)": "low polyreactivity"}
{"sequence": "QVQIVESGGGLVQAGGSLRLSCAASGSIFITYAMGWYRPAPGKERELVAAIRDSGDRTYYADSVKGRFTISRDNAKNTVYLQMNSLKPEDTAVYYCNARWQEPLKYDYWGQGTQVTVSS", "polyreactivity (PSR sort gate)": "low polyreactivity"}
{"sequence": "QVQIVESGGGLVQAGGSLRLSCAASGSIFKYYAMGSYRQAPVKERELVAAISSGGSTKYADSVKARFTISRDNEKNTVYLHMTRLIPEDTAVYYCAARDPSRHARRAYDYWGQGTQVTVSS", "polyreactivity (PSR sort gate)": "low polyreactivity"}
{"sequence": "QVQIVESGGGLVQAGGSLRLSCAASGSIFRYYAMAWYRQETGKERELVARISSGVSTNYADSVKGRFTISRDNAKNSVYLQMNSLKPEDTAVYYCNARTGWTGRGRYSLRYDYWGQGTQVTVSS", "polyreactivity (PSR sort gate)": "high polyreactivity"}
{"sequence": "QVQIVESGGGLVQAGGSLRLSCAASGSIFSRYAMGWYRQAPGKERELVAAISGRGGGTYYADSVKGRFTISRDNAKNTVYLQMNSLKPEDTAVYYCAAQLGRPAYSRVSWRAYYYWGQGTQVTVSS", "polyreactivity (PSR sort gate)": "low polyreactivity"}
{"sequence": "QVQIVESGGGLVQAGGSLRLSCAASGSIFSVYAMGWYRQAPGKERELVAAIRYGDTSTYYADSVKGRFTISRDNAKNTVYFQMNSLKPEDTAVYYCAADLYAYEREYWGQGTQVTVSS", "polyreactivity (PSR sort gate)": "low polyreactivity"}
{"sequence": "QVQIVESGGGLVQAGGSLRLSCAASGSIFYRYAMGWYRQAPGKEREFVAAIDYSGSITRYADSVKGRFTISRDNAKNTVYLQMNSLKPEDTAVYYCAARSYAKDWGGYNYWGQGTQVTVSS", "polyreactivity (PSR sort gate)": "high polyreactivity"}
{"sequence": "QVQIVESGGGLVQAGGSLRLSCAASGSILYEYAMGWYRQAPGKERELVAAISSGDSTNYADSVKGRFTISRDNAKNTVYLQMNSLNPEDTAVYDCNRDFPRERFTYKFDYWGQGTQVTVSS", "polyreactivity (PSR sort gate)": "low polyreactivity"}
{"sequence": "QVQIVESGGGLVQAGGSLRLSCAASGSTFTRYTMGWYRQAPGKERELVAAISGRGGSTYYADSVKGRFTISRDNAKNTVYLQMNSLKPEDTAVYYCNKVYWRRGSLEYWGQGTQVTVSS", "polyreactivity (PSR sort gate)": "high polyreactivity"}
{"sequence": "QVQIVESGGGLVQAGGSLRLSCAASGSTSWSNAMGWYRQAPRKERELVAAITTGASTYYADSVKGRFTISRDNSKNTVYLQMNSLKLEDTAVYYCAADPWVLWSYYYWGQGTQVTVSS", "polyreactivity (PSR sort gate)": "low polyreactivity"}
{"sequence": "QVQIVESGGGLVQAGGSLRLSCAASGSTYDTYAMVWYRQAPGKERELVAGITRRGGRTYYADSVKGRFTISRDNAKNTVYLQMISLKPEDTAVYYCAARTYGYYLYDYWGQGSQVTVSS", "polyreactivity (PSR sort gate)": "high polyreactivity"}
{"sequence": "QVQIVESGGGLVQAGGSLRLSCAASGTFSFYAMGWYRQAPGKERELVATIRSGGRTYYADSVKGRFTISRDNAKNTVYLQMNSLKPEDTAVYYCAKTGFLGLRQYGYWGQGTQVTVSS", "polyreactivity (PSR sort gate)": "high polyreactivity"}
{"sequence": "QVQIVESGGGLVQAGGSLRLSCAASGTFTYYAMGWYRQAPGKERELVAAITWRGGNTYYADSVKGRFTISRDNAKNTVYLQKNSLKPEDTEVYYCAASLWPDYEYDYWGQGTQVTVSS", "polyreactivity (PSR sort gate)": "low polyreactivity"}
{"sequence": "QVQIVESGGGLVQAGGSLRLSCAASGTTFDKYAMGWYRQAPGKERELVAAITTNGGNTYADSVKGRFTISRDNAKNTVYLQMNSLKPEDTAVYYCAADGPGGKGLYYYWGQGTQVTVSS", "polyreactivity (PSR sort gate)": "high polyreactivity"}
{"sequence": "QVQIVESGGGLVQAGGSLRLSCAASRIIFSTYAMGWYRQAPGKEREFVAAITSTGSTNYADSVKGRFTISRDNEKNTVYLQMNSLKPEDTAVYYCAARYAGPSPTDTGHDYWGQGTQVTVSS", "polyreactivity (PSR sort gate)": "low polyreactivity"}
{"sequence": "QVQIVESGGGLVQAGGSLRLSCADSGFISSHYAMGWYRQAPGKERELVAAISTNGGSTYYADSVKGRFTISRDNAKNTVYLQMNSLKPEDTSVYYCAAEFAVSFYWSWLGQDYNYWGQGTQVTVSS", "polyreactivity (PSR sort gate)": "high polyreactivity"}
{"sequence": "QVQIVESGGGLVQAGGSLRLSCAPSGSTFWLYAMGWYRHAPGKERELVASISSRGGSTYYADSVTGRFTISRDNAKNTVYLQMNSLKPEDTAVYYCAAKDIRYDDEYWGQGTQVTVSS", "polyreactivity (PSR sort gate)": "low polyreactivity"}
{"sequence": "QVQIVESGGGLVQAGGSLRLSCASSGRIFNTNAMGWYRQAPGKERELVAGITDSGDSTYYADSVKGRFTISRDNAKNTVYLQMNSLKPQDSAVYFCATDPASPYIYYYWGQGTQVTVSS", "polyreactivity (PSR sort gate)": "low polyreactivity"}
{"sequence": "QVQIVESGGGLVQAGGSLRLSCASYGFTFWGYTMGWYRQAPGKERELVAAITSNGSTYYADSVKGRFTISRDNAQNTVYLQMNSLKPEDTAVYYCAATRGSSEYFYWGQGSQVTVSS", "polyreactivity (PSR sort gate)": "low polyreactivity"}
{"sequence": "QVQIVESGGGLVQAGGSLRLSFAASGRTFGVYAMGWYRQAPGKERELVAAISATGGSTYYADSVKGRFTISRDNSKNTVYLQMNSLKPEDTAVYYCARGGTTLYWGLGTQVTVSS", "polyreactivity (PSR sort gate)": "high polyreactivity"}
{"sequence": "QVQIVESGGGLVQAGGSLRLSGAASGRTFRPYTMGWYRPAPGKERELVARITSGGSTNYADSVKWRFTISRDNAKITVYLQMNSLKPEDTAVYYCNKPGYRLRLDDDYWGQGTQVTVSS", "polyreactivity (PSR sort gate)": "low polyreactivity"}
{"sequence": "QVQIVESGGGLVQAGGSLRLSSAASGNIFVYYAMGGYRQAPGKERELVAALTSDVSTYYADSVKGRFTISRDNAKNTVYLQMNSLKPEDTAVYYCNKVTPGRYYYSVTTGDYWGQGTKVTVSS", "polyreactivity (PSR sort gate)": "low polyreactivity"}
{"sequence": "QVQIVESGGGLVQAGGSLRLSSPASGRTLPSYAMGWYRQAPGKERELVAAITRSGGRTYYADSVKGRFTISRDNAKYTVYLQMNSLKPEDTAVYDCAARQDDYGKIYYYWGQGSQVTVSS", "polyreactivity (PSR sort gate)": "high polyreactivity"}
{"sequence": "QVQIVESGGGLVQAGGSLRLTCAASGFTFYKKAMGWYIQAPGKERELVAAITSSGGSTYYADSVKGRFTISRDNAKNTVYLQMNSLKPEDTAVYYCAAYPQAYIADYDYWGQGTQVTVSS", "polyreactivity (PSR sort gate)": "low polyreactivity"}
